Measured values from paper PMC10870365, “Dissection of protein and RNA regions required for SPEN binding to XIST A-repeat RNA”.

Target: T1, SPEN RRM 2-3 (Homo sapiens) (UniProt Q96T58)
T1 sequence: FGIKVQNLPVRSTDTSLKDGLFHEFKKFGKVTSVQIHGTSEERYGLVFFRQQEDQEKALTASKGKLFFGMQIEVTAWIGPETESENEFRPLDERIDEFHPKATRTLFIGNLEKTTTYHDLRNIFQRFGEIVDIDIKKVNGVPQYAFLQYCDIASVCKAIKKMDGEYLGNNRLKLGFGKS
Assay: EMSA
Conditions: EMSA: 20 mM Tris-HCl pH 7.5, 150 mM KCl, 5 mM MgCl2, 10% glycerol, room temperature 30 min, 2 nM each labeled RNA (multiplexed), 4.5% TBE native gel

| Sequence | Kd |
| --- | --- |
| GGGCUGCGGAUACCUGGUUUUAUUAUUUUUUCUUUGCCCAACGGGGCCGUGGAUACCUGCCUUUUAAUUCUUUUUUAUUCGCCCAUCGGGGCCGCGGAUACCUGCUUUUUAUUUUUUUUUCCUUAGCCCAUCGGGGUAUCGGAUACCUGCUGAUUCCCUUCCCCUCUGAACCCCCAACACUCUGGCCCAUCGGGGUGACGGAUAUCUGCUUUUUAAAAAUUUUCUUUUUUUGGCCCAUCGGGGCUUCGGAUACCUGCUUUUUUUUUUUUUAUUUUUCCUUGCCCAUCGGGGCCUCGGAUACCUGCUUUAAUUUUUGUUUUUCUGGCCCAUCGGGGCCGCGGAUACCUGCUUUGAUUUUUUUUUUUCAUCGCCCAUCGGUGCU [XIST A-full] | 1.05 µM |
| GUACCAGGUAUGUGAUGACAUCAGCCGACGCCUGGCACUGCUGCAGGAACAGUGGGCUGGAGGAAAGUUGUCAAUACCUGUAAAGAAGAGAAUGGCUCUACUGGUGCAAGAGCUUUCAAGCCACCGGUGGGACGCAGCAGAUGACAUCCACCGCUCCCUCAUGGUUGACCAUGUGACUGAGGUCAGUCAGUGGAUGGUAGGAGUUAAAAGAUUAAUUGCAGAAAAGAGGAGUCUGUUUUCAGAGGAGGCAGCCAAUGAAGAGAAAUCUGCAGCCACAGCUGAGAAGAACCAUACCAUACCAGGCUUCCAGCAGGCUUCAUAAUCCUCGGUUCCCCAGACUCACCGGACACCAUCUCCU [SRA] | 5.57 µM |
